Measurements as given in a protein production outcome set (Wang et al. 2014).

assay: label from the status in PepcDB records

Sequence	protein production
EREEEPAVQGNPDESLTVEGALEYVELAPQLNLPQQEEDADFHTVAGLIMEELQTIPDVGDFADFHGWRFEVVEKEGQRIERVKITKLP	not failed
ERLETAQDLLELEGITPELAAKLAERQVHTRDDLAELSTDELAEIAGLQEEEASDLIMRARAHWFDEE	failed
ERLILCSPYFIPDESLLEAVTSACYRGVTVELFVSEQADQFAIDHAQSSYYQALLEAGVKIYQFPKPDVLHTKYMIADPDDTTGNEALGVLGSSNLDIRSFGLNYEISLMIAKGNLIHELNALTDRYRTVSFKLTLDKWNQR	failed
ERRLCAILAADMAGYSRLMERNETDVLNRQKLYRRELIDPAIAQAGGQIVKTTGDGMLARFDTAQAALRCALEIQQAMQQREEDTPRKERIQYRIGINIGDIVLEDGDIFGDAVNVAARLEAISEPGAICVSDIVHQITQDRVSEPFTDLGLQKVKNITRPIRVWQWVPDADRDQSHDPQPSHVQH	not failed
ESICLIGHSLGGDLARYFASEFEEVKKLILLDGGYLDLDKILPLDTELEETKNYIKSQIVSDLDVLTSKEKSEAKHWSENMEKAVRQSYHWNVEYNRYELAINYENIEAILRLRRKIQAFKREVGDTLFISPRYPNEATWREEALKELPDYFDTIFLENFGHELYTQAPKEIASLMNEWL	failed
ESKYIEYKKSRKGLSNDIWSTYSAFANTEGGTIYLGIEEKKIEDKKVFVSVGVEDPEKMIEDFWNALYGRSKVSQNILSNKDVKIVNIENKACIEIHVPEAPYSKKPIYVDNKKDLVYKRVDDADRIATEEEYKFMIVNSQDDIDTELLDNYDMSDLNHESIENYRKLLLKNTNDERYANMSQLDLMIDLGAYRKDRSSKDKQYKMTTACLLFFGKYNAISDRFPGFQLDYFKKTNYLDTDWKDRISSGDLGNEDLNVYSFFEKVLIKLTDNIEESFSLNDGLTRQNYARDLKVAIREALVNTLMHAYYDTKQSIKIVNCEDFIEFYNPGNMRINKEDFIHGGHSKDRNSILSTLFRRVGYSEKAGSGGPRIFDVVNRHKLKTPEIELTDMDTNVVLWKQDLMKEFEKYPELDKKVIKYIIDYGSISKGEALKMENMTEYQFRNILKKLKDDNLIKKEGEGPATKYVL	failed
ESTLVNENVLENIPMGIIVVDINCNITSINDYALNIMDKNIESVIGMPVLDIIPTSDTPLVIKTKEKKLGKTQHINKHIVISNCCPIISNNNVIGALCVFQDIS	failed
EVGVNMAVTPGKVIFQNEIMQLIQYEPATATVQRTPLLIVPPWINKYYILDLKPEKSFIKWCVDQGLTVFVISWVNPDKSLADKDFADYMKLGPLTAMDVVEKVTGEMKVHTLGYCVGGTLLASTLAWLAERRRVRVTSATFLTTQVDFTHAGDLMVFVDEEQISAVEREMKVTGVLEGAKMAMAFNMLRPNDLIWSYVVNNYLKGQPPQAFDLLHWNSDATRMPAANHSYYLRNCYLDNKLSAGTMVLDNTTLDLTKVKVPIYNLATREDHIAPAESVLYGSQFFGGPVKFVLSGSGHI	failed
EWQHRGYGRELLAEAERIAREEFDAKKMLIISGVGVREYYRKFGYRKDGPYVSKRLDKRYADYKRTNRFDAELNT	failed
EYSENNAPLFIRAVNSVASTTGAPPWANLVSILEEKNGADPELLVYTVTLINKTLAALPDQDSFYDVTDALEQQGMEALVQRHLGTAGTDVDLRTQLVLYENALKLEDGDI	failed
FETRAKGRSGEALRSLLNLGAKDAAIIRDNREVRIPIQSLQVGDVFVVRPGEKIATDGVVVEGTSAVDQSMITGESVPVEVAQGSHVTGATMNTSGRLLVTAQRVGADTTLAAMGRLVAEAQSNKAPVQKLVDKISQ	failed
FFSVSNIGLHARAYKDKLFVHTASLRSGNPYKQVDLLVLDAKGETVLQGATDDNGNALLNYTLNAGHVLVSRNGRDISILPFNQPALDLSEFAVAGRENPWFDVFAWSGRDLYRPGEMLRISALLRDRDGKPVKPQPVFLRLKQPDGKTFRETRLQPAEQGYLEFTQKIPSDAPTGRWRVEFRTDPASKEAVQGLAVRVEEFLPERMKLELSSAQPVLRAKAPFTLTADAAYLYGAPAAGNRFTANLAVAVEQHPLDNMPGWFFGDATL	failed
FKVRVGEPGQAGNPALVSAYGTGLEGGTTGIQSEFFINTTRAGPGTLSVTIEGPSKVKMDCQETPEGYKVMYTPMAPGNYLISVKYGGPNHIVGSPFKAKVTGQRLVSPGSANETSSI	not failed
FLTEFINYIKKSKVVLLEDLAFQMGLRTQDAINRIQDLLTEGTLTGVIDDRGKFIYITP	not failed
FMPTEKDVKTLQLTMKEYEAKDDWQLYLWKENEDFVGIMGIVKKENQVLEIQHLSVNPSHRHVGIGTKMVQELKSKFLEFTICGNEQTASFCEKC	failed
FTNHKGNPMQTERFNKILREAAKDVGIDKEVSSHILRHSHISLLSQQGVSLKAIMDRVGHSDHRTTLSIYSHVTEQMDKDMMNKLEQVKLG	failed
GAAGPWRLPIGNSVVASSPPVLQANAETWLDFTDLVFIDPVGTGYSRFVASGDEVRKHFYAVEGDISAMAVVIRRWLEKNDRLVSPKYLAGESYGGIRGPKVVDNLQTKQGVGVNGLILVSPVLDFRDLSGSSLLQYAARLPSMTAVARQQKGKVNRADLADVESYARSEFLTDLVKGEADKEATTRLADRVSALTGIDKTVSRRLAGRFDTREFQREFDRDRGRVTGRFDGAKLGLDPFPDSSAAHFGDPSADSLIAPLTSAAVQLTRSTLNWKPDGSYELLNGSVAEQWDFGRGRQPLESTTQLREILSVDPSLQVLVTGGLFDLAAPYFGTQMVLDQLPPTLAEKRVKFVVYPGGHMFYAEDAARQSLHDEVKAMMK	failed
GAPLQRMLDEIAGHAACPVVVTNLAHRVLATAGERSAVDDVLRDWERIARQAGGSEGAGWVRAELGGRGERWGRIVLCGYRGDAATGRLLADRAAEALVLHRMLGGSAHTWEEQSAQGLLTDLVSGVVPARQLLPRARAAGLPVNRRTFVPLVVRDGEPPVLDRVLRMLGLPGLVAELADGATAVLLSLARDQDAEALSAHFATRLRTESGASGTVVAAADPRTAWDDVPAGLREAQHVADAVAENSAVLDLPAVVRLRDVHLRGLIRLLRDDPYVQSFAERELNGLLCGRDAESDLLPVLRTYLATGRNKSRTAQLHHVSRPALYRRLEAIQARLGVDLDDFEQAASVHIALLAHDAQQ	failed
GDAHDQQALDYALYHLRIMTPAHGERSSIAAKGLTGEGYKGHVFWDTEVFLLPFHLFSDPTVARSLLRYRWHNLPGAQEKARRNGWQGALFPWESARSGEEETPEFAAINIRTGLRQKVASAQAEHHLVADIAWAVIQYWQTTGDESFIAHEGMALLLETAKFWISRAVRVNDRLEIHDVIGPDEYTEHVNNNAFTSYMVYYNVQQALSIARQFGCSDDAFIHRAEMFLKELRLPEIQPDGVLPQDDSFMTKPAINLAKYKAAAGKQTILLDYSRAEVNEMQILKQADVVMLNYMLPEQFSSASCLANLQFYEPRTIHDSSLSKAIHGIVAARCGLLTQSYQFWREGTEIDLGADPHSCDDGIHAAATGAIWLGAIQGFA	failed
GDAQAGLVLLHGRGASAQGMLQLADDLDVPDIAHLAPQARMRSWYPQSFMAPRDQNEPELASALATIGDVLGRLADAGIGPARTVLLGFSQGACLATTYAAQTPQRYGGVVGLSGGLIGPDGASFDYEGSLDATPVFLGCSDQDPYIPRARVAETADVLRALNADVTSRIYEGLGHTINDAERQHARSLLRRCVD	failed
GEEDWVLPSEVEVLESIYLDELQVIKGNGRTSPWEIYITLHPATAEDQDSQYVCFTLVLQVPAEYPHEVPQISIRNPRGLSDEQIHTILQVLGHVAKAGLGTAMLYELIEKGKEILTDNNIPHGQCVICLYGFQEKEAFTKTPCYHYFHCHCLARY	failed
GEKTFTQRSRLFVGNLPPDITEEEMRKLFEKYGKAGEVFIHKDKGFGFIRLETRTLAEIAKVELDNMPLRGKQLRVRFACHSASLT	not failed
GERPEPVFDAFADRLAEVAAVPYAMVNFIDENRQFFAGLHAPDGTGSGGRPAADGAEPPDVRRYMARDYGFCPHVVVRRKALVLEDVCDYPRFAGNPVVDEIGIRSYLGAPLIDRTGIALGTICVVDIEPRPWGRAGLETIKALAAELVEQIGRRESGGI	failed
GERRIPESRILRREVVEATSAVAAALQIPARAPVIEMTRVRLIDGAPMLAEEIWLPYDRFAAFSRLELDSIGDLLYPVYEAHCNQIVASATETLTVEAIGPAHARLLRIEPGTPAVVIERLAYGYDRRPLEWRRSRGPASEFIYQAEIR	failed
GERRKDRPYVEEPRHVKVQKGSEPLGISIVSGEKGGIYVSKVTVGSIAHQAGLEYGDQLLEFNGINLRSATEQQARLIIGQQCDTITILAQYNPHVHQLSSHSR	not failed
GGRRWNWVQSWPVWKYFKEYFPICLVKTQDLDPGHNYIFGFHPHGIFVPGAFGNFCTKYSDFKKLFPGFTSYLHVAKIWFCFPLFREYLMSNGPVSVSKESLSHVLSKDGGGNVSIIVLGGAKEALEAHPGTFTLCIRQRKGFVKMALTHGASLVPVFSFGENDLYKQINNPKGSWLRTIQDAMYDSMGVALPLIYARGIFQHYFGIMPYRKLIYTVVGRPIPVQQILNPTSEQIEELHQTYLEELKKLFNEHKGKYGIPEHETLVFK	failed
GGTSNEVAQFLSKENQVIVRMRGLPFTATAEEVVAFFGQHCPITGGKEGILFVTYPDGRPTGDAFVLFACEEYAQNALRKHKDLLGKRYIELFRSTAAEVQQVLNRFSSA	not failed
GHFPRACVSSKNLMEKECCPPWSGDRSPCGQLSGRGSCQNILLSNAPLGPQFPFTGVDDRESWPSVFYNRTCQCSGNFMGFNCGNCKFGFWGPNCTERRLLVRRNIFDLSAPEKDKFFAYLTLAKHTISSDYVIPIGTYGQMKNGSTPMFNDINIYDLFVWMHYYVSMDALLGGSEIWRDIDFAHEAPAFLPWHRLFLLRWEQEIQKLTGDENFTIPYWDWRDAEKCDICTDEYMGGQHPTNPNLLSPASFFSSWQIVCSRLEEYNSHQSLCNGTPEGPLRRNPGNHDKSRTPRLPSSADVEFCLSLTQYESGSMDKAANFSFRNTLEGFASPLTGIADASQSSMHNALHIYMNGTMSQVQGSANDPIFLLHHAFVDSIFEQWLRRHRPLQEVYPEANAPIGHNRESYMVPFIPLYRNGDFFISSKDLGYDYSYLQDSDPDSFQDYIKSYLEQASRIWSWLLGAAMVGAVLTALLAGLVSLLCRHKRKQLPEEKQPLLMEKEDYHSLYQSHL	failed
GHMHTPFIVALDFPSKQEVERFLRPFAGTPLFVKVGMELYYQEGPAIVAFLKEQGHAVFLDLKLHDIPNTVKQAMKGLARVGADLVNVHAAGGRRMMEAAIEGLDAGTPSGRMRPRCIAVTQLTSTDERMLHEELWISRPLVETVAHYAALAKESGLDGVVCSANEAAFIKERCGASFLAVTPGIRFADDAAHDQVRVVTPRKARALGSDYIVIGRSLTRAADPLRTYARLQHEWNGGERESTTPT	not failed
GHMYETIRYEVKGQVAWLTLNRPDQLNAFTEQMNAEVTKALKQAGADPNVRCVVITGAGRAFCAGEDLSGVTEEMDHGDVLRSRYAPMMKALHHLEKPVVAAVNGAAAGAGMSLALACDFRLLSEKASFAPAFIHVGLVPDAGHLYYLPRLVGRAKALELAVLGEKVTAEEAAALGLATKVIPLSDWEEEVKQFAERLSAMPTKAIGLIKRLLRESEETTFDRYLEREAECQRIAGLTSDHREGVKAFFEKRKPLFQGN	not failed
